Data on one molecule can be found in publication PMC5018734.

For this assay, the target named is T1, human P2X1 receptor, wild type subunit (human) (UniProt P51575).
T1 sequence: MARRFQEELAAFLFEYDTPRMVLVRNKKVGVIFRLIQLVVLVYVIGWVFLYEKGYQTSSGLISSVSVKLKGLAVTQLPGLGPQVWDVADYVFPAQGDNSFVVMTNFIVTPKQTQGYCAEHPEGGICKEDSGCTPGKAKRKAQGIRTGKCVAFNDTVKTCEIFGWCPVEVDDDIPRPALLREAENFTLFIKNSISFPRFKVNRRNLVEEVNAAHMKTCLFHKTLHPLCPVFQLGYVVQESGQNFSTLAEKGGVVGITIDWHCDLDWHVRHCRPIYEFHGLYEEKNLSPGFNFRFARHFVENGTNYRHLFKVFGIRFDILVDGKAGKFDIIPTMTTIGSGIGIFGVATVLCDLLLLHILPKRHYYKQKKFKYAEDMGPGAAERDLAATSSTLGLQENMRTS

B1: human P2X1 receptor K190C-K68A double mutant subunit (receptor)
chain: MARRFQEELAAFLFEYDTPRMVLVRNKKVGVIFRLIQLVVLVYVIGWVFLYEKGYQTSSGLISSVSVALKGLAVTQLPGLGPQVWDVADYVFPAQGDNSFVVMTNFIVTPKQTQGYCAEHPEGGICKEDSGCTPGKAKRKAQGIRTGKCVAFNDTVKTCEIFGWCPVEVDDDIPRPALLREAENFTLFICNSISFPRFKVNRRNLVEEVNAAHMKTCLFHKTLHPLCPVFQLGYVVQESGQNFSTLAEKGGVVGITIDWHCDLDWHVRHCRPIYEFHGLYEEKNLSPGFNFRFARHFVENGTNYRHLFKVFGIRFDILVDGKAGKFDIIPTMTTIGSGIGIFGVATVLCDLLLLHILPKRHYYKQKKFKYAEDMGPGAAERDLAATSSTLGLQENMRTS
modifications: labelled with the cysteine reactive fluorophore MTS-TAMRA (K190C)
On to B1, for which the ATP (100 uM) evoked decrease in MTS-TAMRA fluorescence (voltage clamp fluorometry) in oocytes co-expressing WT and K68A-K190C subunits; neither homomer shows a fluorescence change came out at 3%.
